We go through two molecules from paper PMC6461989.

Bounds are passed on as bounds.

This assay has as its target human active plasmin (human).

Sequence of human active plasmin (human) (P00747 20-580, chain 1 of 2): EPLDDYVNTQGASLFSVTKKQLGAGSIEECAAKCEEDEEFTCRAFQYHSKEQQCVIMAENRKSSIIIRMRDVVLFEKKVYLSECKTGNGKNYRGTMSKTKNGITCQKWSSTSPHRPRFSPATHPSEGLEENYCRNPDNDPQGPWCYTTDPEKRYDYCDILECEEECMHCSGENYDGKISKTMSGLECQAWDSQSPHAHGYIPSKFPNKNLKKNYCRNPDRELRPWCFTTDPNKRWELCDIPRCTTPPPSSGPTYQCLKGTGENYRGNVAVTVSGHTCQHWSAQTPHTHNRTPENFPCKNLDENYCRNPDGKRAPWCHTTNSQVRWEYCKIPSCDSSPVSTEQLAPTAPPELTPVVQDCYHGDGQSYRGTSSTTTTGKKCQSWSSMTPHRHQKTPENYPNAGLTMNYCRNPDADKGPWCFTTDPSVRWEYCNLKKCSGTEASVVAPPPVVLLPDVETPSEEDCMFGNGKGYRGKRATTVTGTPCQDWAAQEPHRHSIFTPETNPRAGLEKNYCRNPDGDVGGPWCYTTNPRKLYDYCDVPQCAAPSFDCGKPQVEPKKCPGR
Sequence of human active plasmin (human) (P00747 581-810, chain 2 of 2): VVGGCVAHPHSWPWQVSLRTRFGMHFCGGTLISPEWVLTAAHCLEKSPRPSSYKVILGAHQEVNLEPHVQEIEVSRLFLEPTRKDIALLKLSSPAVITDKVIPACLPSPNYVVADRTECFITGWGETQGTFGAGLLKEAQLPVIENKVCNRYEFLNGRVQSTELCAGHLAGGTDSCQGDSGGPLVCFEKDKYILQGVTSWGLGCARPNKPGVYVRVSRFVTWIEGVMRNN

B1: α-2-antiplasmin (natural protein)
chain: NQEQVSPLTLLKLGNQEPGGQTALKSPPGVCSRDPTPEQTHRLARAMMAFTADLFSLVAQTSTCPNLILSPLSVALALSHLALGAQNHTLQRLQQVLHAGSGPCLPHLLSRLCQDLGPGAFRLAARMYLQKGFPIKEDFLEQSEQLFGAKPVSLTGKQEDDLANINQWVKEATEGKIQEFLSGLPEDTVLLLLNAIHFQGFWRNKFDPSLTQRDSFHLDEQFTVPVEMMQARTYPLRWFLLEQPEIQVAHFPFKNNMSFVVLVPTHFEWNVSQVLANLSWDTLHPPLVWERPTKVRLPKLYLKHQMDLVATLSQLGLQELFQAPDLRGISEQSLVVSGVQHQSTLELSEVGVEAAAATSIAMSRMSLSSFSVNRPFLFFIFEDTTGLPLFVGSVRNPNPSAPRELKEQQDSPGNKDFLQSLKGFPRGDKLFGPDLKLVPPMEEDYPQFGSPK
For the molecule B1, the inhibition of plasmin activity, low ratio (~40%) to high ratio of α-2-antiplasmin to plasmin (Supplementary Figure S13B) is over 99%.

B2: recombinant HAI-2 (rHAI-2) proteins containing the extracellular region of HAI-2 (domain or fragment)
chain: ADRERSIHDFCLVSKVVGRCRASMPRWWYNVTDGSCQLFVYGGCDGNSNNYLTKEECLKKCATVTENATGDLATSRNAADSSVPSAPRRQDSEDHSSDMFNYEEYCTANAVTGPCRASFPRWYFDVERNSCNNFIYGGCRGNKNSYRSEEACMLRCFRQQENPPLPLGSK
With B2, the inhibition of plasmin activity in the presence of equimolar uPA and plasminogen, ratio of HAI-2 to uPA/plasminogen 1:1 (~20% inhibition) to 10:1 (Supplementary Figure S13A) came to 75%; the inhibition of plasmin activity, high ratio of HAI-2 to plasmin (Supplementary Figure S13B) was 66%.
